B1: BJM0498 (scFv, part only; not given: Fc scaffold making it bivalent, part only)
scFv, part: QVQLVQSGAEVKKPGSSVKVSCKASGTDFKLTYIHWVRQAPGQGLEWMGRIFPGSGNVKYNEKFKGRVTITADTSTSTAYMELSSLRSEDTAVYYCAGSYYSYDVLDYWGQGTTVTVSSGGGGSGGGGSGGGGSGGGGSDIQMTQSPSFLSASVGDRVTITCKASQNVDNRVAWYQQKPGKAPKALIYSSSHRYKGVPSRFSGSGSGTEFTLTISSLQPEDFATYFCQQFKSYPLTFGQGTKLEIK
B2: BJM0501 (scFv, part only; not given: Fc scaffold making it bivalent, part only)
scFv, part: QVQLVQSGAEVKKPGSSVKVSCKASGHDFRLTYIHWVRQAPGQGLEWMGRISAGSGNVKYNEKFKGRVTITADTSTSTAYMELSSLRSEDTAVYYCAGSYYSYDVLDYWGQGTTVTVSSGGGGSGGGGSGGGGSGGGGSDIQMTQSPSFLSASVGDRVTITCKASQNVADRVAWYQQKPGKAPKALIYSSSHRYKGVPSRFSGSGSGTEFTLTISSLQPEDFATYFCQQFKSYPLTFGQGTKLEIK
B3: BJM0901 (bispecific antibody, not shown: a dimerising Fc or GST; large carriers)
heavy: QVQLVQSGAEVKKPGSSVKVSCKASGTDFKLTYIHWVRQAPGQGLEWMGRIFPGSGNVKYNEKFKGRVTITADTSTSTAYMELSSLRSEDTAVYYCAGSYYSYDVLDYWGQGTTVTVSSGGGGSGGGGSGGGGSGGGGSDIQMTQSPSFLSASVGDRVTITCKASQNVDNRVAWYQQKPGKAPKALIYSSSHRYKGVPSRFSGSGSGTEFTLTISSLQPEDFATYFCQQFKSYPLTFGQGTKLEIKGGGGSQVQLVQSGAEVKKPGSSVKVSCKASGYTFTDYNMHWVRQAPGQGLEWIGYIYPYNGGTGYNQKFKSKATITADESTNTAYMELSSLRSEDTAVYYCARGRPAMDYWGQGTLVTVSS
light: DIQMTQSPSSLSASVGDRVTITCRASESVDNYGISFMNWFQQKPGKAPKLLIYAASNQGSGVPSRFSGSGSGTDFTLTISSLQPDDFATYYCQQSKEVPWTFGQGTKVEIK

Key:
[1] = target: cynomolgus TCRvβ (BJM0847) (cynomolgus); test: SPR (Biacore), Table 21; set-up not restated
[2] = target: human TCRvβ (BIM0444) (human); test: SPR (Biacore), Table 21; set-up not restated
[3] = target: cynomolgus TCRvβ (BJM0847) (cynomolgus); test: SPR (Biacore), comparison with the parental antibody
[4] = target: cynomolgus TCRvβ (BJM0847) (cynomolgus); test: SPR (Biacore): antibody captured on Protein L chip, BJM0847 as analyte, 1:1 fit
[5] = target: human TCRvβ (BIM0444) (human); test: SPR (Biacore): antibody captured via anti-human Fc on CM5, BIM0444 as analyte, 1:1 fit

human TCRvβ (BIM0444) (human), sequence (A0A0K0K1A5 22-114): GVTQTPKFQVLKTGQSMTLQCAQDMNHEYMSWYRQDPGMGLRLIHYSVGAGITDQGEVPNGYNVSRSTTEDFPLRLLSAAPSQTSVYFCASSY

Binder	Kd [1] [nM]	Kd [2] [nM]	fold improvement of affinity compared to the parental antibody [3] [fold]	Kd [4] [nM]	Kd [5] [nM]
B1	86	7.9	6	86	7.9
B2			6	87	4.1
B3	55	7.09			

— patent publication US20230102344A1
